Laboratory results from paper PMC9482650, “Quantitative fragmentomics allow affinity mapping of interactomes” (Nature Communications, 2022).

Tests used:
Experiment in all cases: holdup assay
Design in all cases: key: below the threshold = too weak to quantify, mostly under pKd 3.1 to 4
Conditions in all cases: plain residues with an end cap or a label only (N-terminal biotin on a linker: ttds)
AHNAK1, Q09666 = target: AHNAK1, Q09666
APBA3_1, O96018 = target: T1, APBA3_1, O96018
T1 sequence (O96018 389-490, limits assumed, looked up): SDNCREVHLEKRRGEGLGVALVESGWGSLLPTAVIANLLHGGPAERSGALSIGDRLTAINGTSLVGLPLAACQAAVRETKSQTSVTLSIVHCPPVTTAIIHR

ARHGEF12, Q9NZN5-2 = target: ARHGEF12, Q9NZN5-2
DFNB31_1, Q9P202 = target: T2, DFNB31_1, Q9P202
T2 sequence (Q9P202 135-233, limits assumed, looked up): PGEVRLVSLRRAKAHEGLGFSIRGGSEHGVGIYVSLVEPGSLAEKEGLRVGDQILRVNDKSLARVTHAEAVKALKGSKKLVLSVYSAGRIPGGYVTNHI

DFNB31_3, Q9P202 = target: T3, DFNB31_3, Q9P202
T3 sequence (Q9P202 811-907, limits assumed, looked up): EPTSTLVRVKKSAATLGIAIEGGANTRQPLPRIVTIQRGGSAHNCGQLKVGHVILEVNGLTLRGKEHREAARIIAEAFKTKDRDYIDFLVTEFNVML

DLG2_2, Q15700 = target: DLG2_2, Q15700
GORASP1, Q9BQQ3 = target: GORASP1, Q9BQQ3
GRID2IP_2, A4D2P6 = target: GRID2IP_2, A4D2P6
GRIP1_2, Q9Y3R0 = target: T4, GRIP1_2, Q9Y3R0
T4 sequence (Q9Y3R0 145-248, limits assumed, looked up): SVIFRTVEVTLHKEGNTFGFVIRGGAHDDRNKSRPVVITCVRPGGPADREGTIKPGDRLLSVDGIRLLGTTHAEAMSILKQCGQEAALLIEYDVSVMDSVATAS

GRIP1_4, Q9Y3R0 = target: T5, GRIP1_4, Q9Y3R0
T5 sequence (Q9Y3R0 467-571, limits assumed, looked up): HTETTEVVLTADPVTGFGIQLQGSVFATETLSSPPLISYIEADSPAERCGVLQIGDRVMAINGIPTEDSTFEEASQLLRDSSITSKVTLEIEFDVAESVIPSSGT

GRIP1_7, Q9Y3R0 = target: T6, GRIP1_7, Q9Y3R0
T6 sequence (Q9Y3R0 999-1096, limits assumed, looked up): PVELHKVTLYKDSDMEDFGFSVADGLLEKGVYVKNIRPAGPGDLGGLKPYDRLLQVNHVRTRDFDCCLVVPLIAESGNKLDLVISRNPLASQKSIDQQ

GRIP2_4, Q9C0E4 = target: GRIP2_4, Q9C0E4
HTRA1, Q92743 = target: HTRA1, Q92743
Inadl_3, Q8NI35 = target: Inadl_3, Q8NI35
LAP2, Q96RT1 = target: LAP2, Q96RT1
LNX1_3, Q8TBB1 = target: LNX1_3, Q8TBB1
MAST2, Q6P0Q8 = target: MAST2, Q6P0Q8
MPDZ_5, O75970 = target: T7, MPDZ_5, O75970
T7 sequence (O75970 695-796, limits assumed, looked up): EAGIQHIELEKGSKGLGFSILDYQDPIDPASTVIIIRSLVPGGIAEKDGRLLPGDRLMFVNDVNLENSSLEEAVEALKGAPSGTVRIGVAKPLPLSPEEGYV

MPP2, Q14168 = target: T8, MPP2, Q14168
T8 sequence (Q14168 180-250, limits assumed, looked up): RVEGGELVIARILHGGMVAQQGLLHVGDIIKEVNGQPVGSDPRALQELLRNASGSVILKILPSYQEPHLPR

PICK1, Q9NRD5 = target: PICK1, Q9NRD5
PTPN3, P26045 = target: PTPN3, P26045
SHANK1, Q9Y566 = target: T9, SHANK1, Q9Y566
T9 sequence (Q9Y566 658-767, limits assumed, looked up): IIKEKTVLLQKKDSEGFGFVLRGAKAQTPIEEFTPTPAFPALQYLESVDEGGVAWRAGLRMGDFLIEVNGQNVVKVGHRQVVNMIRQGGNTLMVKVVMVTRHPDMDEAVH

SIPA1L2, Q9P2F8 = target: T10, SIPA1L2, Q9P2F8
T10 sequence (Q9P2F8 945-1036, limits assumed, looked up): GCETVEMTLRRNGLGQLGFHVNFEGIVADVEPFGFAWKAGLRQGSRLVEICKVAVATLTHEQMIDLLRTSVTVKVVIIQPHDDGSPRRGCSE

TIAM2, Q8IVF5 = target: T11, TIAM2, Q8IVF5
T11 sequence (Q8IVF5 885-986, limits assumed, looked up): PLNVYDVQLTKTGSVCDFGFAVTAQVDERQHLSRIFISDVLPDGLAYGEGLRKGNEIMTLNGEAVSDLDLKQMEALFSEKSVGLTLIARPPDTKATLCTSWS

TJP2_1, Q9UDY2 = target: TJP2_1, Q9UDY2
TJP3_3, O95049 = target: T12, TJP3_3, O95049
T12 sequence (O95049 375-456, limits assumed, looked up): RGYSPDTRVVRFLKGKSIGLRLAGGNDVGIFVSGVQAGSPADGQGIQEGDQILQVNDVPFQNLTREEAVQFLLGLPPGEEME

Sequence of HTRA1, Q92743 (Q92743 360-477): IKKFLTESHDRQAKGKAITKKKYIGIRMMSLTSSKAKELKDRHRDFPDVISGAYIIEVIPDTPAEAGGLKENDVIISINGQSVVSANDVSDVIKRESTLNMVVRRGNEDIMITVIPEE
Sequence of Inadl_3, Q8NI35 (Q8NI35 359-469): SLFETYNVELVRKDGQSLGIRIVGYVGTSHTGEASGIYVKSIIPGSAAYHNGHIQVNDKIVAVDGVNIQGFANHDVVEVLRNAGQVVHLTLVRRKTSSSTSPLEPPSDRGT
Sequence of PICK1, Q9NRD5 (Q9NRD5 17-115): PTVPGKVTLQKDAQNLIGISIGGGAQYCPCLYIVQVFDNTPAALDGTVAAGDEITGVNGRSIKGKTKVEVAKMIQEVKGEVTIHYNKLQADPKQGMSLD
Sequence of GRIP2_4, Q9C0E4 (Q9C0E4 446-548): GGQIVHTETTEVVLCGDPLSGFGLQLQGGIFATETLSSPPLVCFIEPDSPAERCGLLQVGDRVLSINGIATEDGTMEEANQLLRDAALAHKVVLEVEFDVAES
Sequence of GRID2IP_2, A4D2P6 (A4D2P6 272-370): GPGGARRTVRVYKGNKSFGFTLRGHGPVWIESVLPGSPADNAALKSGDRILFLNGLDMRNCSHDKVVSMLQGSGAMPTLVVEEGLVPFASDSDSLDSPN
Sequence of TJP2_1, Q9UDY2 (Q9UDY2 24-128): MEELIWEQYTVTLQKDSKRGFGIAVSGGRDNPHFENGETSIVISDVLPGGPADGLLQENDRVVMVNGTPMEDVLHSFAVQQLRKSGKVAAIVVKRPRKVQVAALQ
Sequence of MAST2, Q6P0Q8 (Q6P0Q8 1099-1202): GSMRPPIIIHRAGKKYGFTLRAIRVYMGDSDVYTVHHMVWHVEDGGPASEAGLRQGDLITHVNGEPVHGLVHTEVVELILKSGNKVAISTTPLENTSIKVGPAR
Sequence of DLG2_2, Q15700 (Q15700 189-283): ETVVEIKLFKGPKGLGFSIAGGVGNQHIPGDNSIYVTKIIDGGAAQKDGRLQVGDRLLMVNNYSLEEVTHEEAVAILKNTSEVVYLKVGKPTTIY
Sequence of LAP2, Q96RT1 (Q96RT1 other isoform, or with tags, fused parts or gaps): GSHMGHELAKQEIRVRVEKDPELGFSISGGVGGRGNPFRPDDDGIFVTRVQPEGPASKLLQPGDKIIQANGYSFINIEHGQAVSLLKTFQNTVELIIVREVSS
Sequence of LNX1_3, Q8TBB1 (Q8TBB1 500-596): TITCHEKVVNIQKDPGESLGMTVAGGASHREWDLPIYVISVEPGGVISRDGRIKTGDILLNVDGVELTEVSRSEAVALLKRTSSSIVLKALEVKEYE
Sequence of AHNAK1, Q09666 (Q09666 4-100): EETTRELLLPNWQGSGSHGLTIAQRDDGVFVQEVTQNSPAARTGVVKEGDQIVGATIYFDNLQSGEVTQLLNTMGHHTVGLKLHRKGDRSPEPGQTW
Sequence of PTPN3, P26045 (P26045 505-587): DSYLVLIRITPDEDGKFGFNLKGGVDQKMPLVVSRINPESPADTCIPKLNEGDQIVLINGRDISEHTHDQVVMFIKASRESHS
Sequence of ARHGEF12, Q9NZN5-2 (Q9NZN5 other isoform, or with tags, fused parts or gaps): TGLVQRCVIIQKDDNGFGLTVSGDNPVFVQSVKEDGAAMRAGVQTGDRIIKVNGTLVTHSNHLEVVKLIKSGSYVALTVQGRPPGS
Sequence of GORASP1, Q9BQQ3 (Q9BQQ3 1-208): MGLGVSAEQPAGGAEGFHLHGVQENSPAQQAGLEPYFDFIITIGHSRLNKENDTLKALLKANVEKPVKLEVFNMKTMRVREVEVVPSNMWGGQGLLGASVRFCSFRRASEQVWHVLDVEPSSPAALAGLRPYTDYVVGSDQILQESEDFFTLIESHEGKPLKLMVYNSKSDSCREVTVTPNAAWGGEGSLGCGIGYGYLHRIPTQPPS

| Binder | pKd (AHNAK1, Q09666) | pKd (APBA3_1, O96018) | pKd (ARHGEF12, Q9NZN5-2) | pKd (DFNB31_1, Q9P202) | pKd (DFNB31_3, Q9P202) | pKd (DLG2_2, Q15700) | pKd (GORASP1, Q9BQQ3) | pKd (GRID2IP_2, A4D2P6) | pKd (GRIP1_2, Q9Y3R0) | pKd (GRIP1_4, Q9Y3R0) | pKd (GRIP1_7, Q9Y3R0) | pKd (GRIP2_4, Q9C0E4) | pKd (HTRA1, Q92743) | pKd (Inadl_3, Q8NI35) | pKd (LAP2, Q96RT1) | pKd (LNX1_3, Q8TBB1) | pKd (MAST2, Q6P0Q8) | pKd (MPDZ_5, O75970) | pKd (MPP2, Q14168) | pKd (PICK1, Q9NRD5) | further results |
| --- | --- | --- | --- | --- | --- | --- | --- | --- | --- | --- | --- | --- | --- | --- | --- | --- | --- | --- | --- | --- | --- |
| PKTPPTDTSV [KIR3DL3, Q8N743] | below the threshold | below the threshold | below the threshold | 3.69 | below the threshold | below the threshold | below the threshold | below the threshold | below the threshold | below the threshold | below the threshold | below the threshold | below the threshold | below the threshold | below the threshold | below the threshold | 4.7 | below the threshold | below the threshold | below the threshold | pKd (PTPN3, P26045): 4.48; pKd (SHANK1, Q9Y566): below the threshold; pKd (SIPA1L2, Q9P2F8): below the threshold; pKd (TIAM2, Q8IVF5): below the threshold; pKd (TJP2_1, Q9UDY2): below the threshold; pKd (TJP3_3, O95049): below the threshold |
| TVASEKESVM [SLC1A5, Q15758] | below the threshold | below the threshold | 3.65 | 3.65 | below the threshold | below the threshold | below the threshold | 3.7 | below the threshold | below the threshold | 3.67 | below the threshold | 3.86 | below the threshold | below the threshold | below the threshold | 4.61 | below the threshold | below the threshold | below the threshold | pKd (PTPN3, P26045): 4.94; pKd (SHANK1, Q9Y566): below the threshold; pKd (SIPA1L2, Q9P2F8): below the threshold; pKd (TIAM2, Q8IVF5): below the threshold; pKd (TJP2_1, Q9UDY2): below the threshold; pKd (TJP3_3, O95049): below the threshold |
